# Experiments:
# [1] = molecular target: IL-2 receptor (CD25) on HUT-102 and MT-2 cells (human) (UniProt P01589); experiment: cell-based or functional assay
# [2] = molecular target: T1, CD124 (IL4-receptor) on 4T1 triple-negative breast cancer cells (mouse) (UniProt P16382); experiment: cell-based or functional assay
# T1 sequence: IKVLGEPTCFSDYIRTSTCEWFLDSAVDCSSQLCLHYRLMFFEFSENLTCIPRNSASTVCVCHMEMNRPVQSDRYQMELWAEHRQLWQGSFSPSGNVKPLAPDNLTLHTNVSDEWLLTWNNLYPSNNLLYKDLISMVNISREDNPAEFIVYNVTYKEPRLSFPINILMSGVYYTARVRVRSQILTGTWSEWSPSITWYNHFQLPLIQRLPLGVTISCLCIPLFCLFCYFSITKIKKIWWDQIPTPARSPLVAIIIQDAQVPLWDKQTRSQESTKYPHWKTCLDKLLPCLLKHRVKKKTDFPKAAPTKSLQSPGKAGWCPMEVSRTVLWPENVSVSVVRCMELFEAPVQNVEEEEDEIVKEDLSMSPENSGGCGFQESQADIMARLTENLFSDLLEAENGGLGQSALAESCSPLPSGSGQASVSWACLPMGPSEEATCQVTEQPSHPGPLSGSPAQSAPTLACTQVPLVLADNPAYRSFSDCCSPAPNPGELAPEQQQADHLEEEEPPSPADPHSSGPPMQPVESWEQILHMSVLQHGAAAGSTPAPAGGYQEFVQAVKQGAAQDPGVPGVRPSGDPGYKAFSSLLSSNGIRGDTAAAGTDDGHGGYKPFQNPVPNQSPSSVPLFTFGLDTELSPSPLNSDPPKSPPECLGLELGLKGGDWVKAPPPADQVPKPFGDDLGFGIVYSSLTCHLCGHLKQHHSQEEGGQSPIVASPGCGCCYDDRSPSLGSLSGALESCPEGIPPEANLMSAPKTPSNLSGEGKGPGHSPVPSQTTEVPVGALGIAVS
# Chain of UniProt P01589 (P01589 22-272): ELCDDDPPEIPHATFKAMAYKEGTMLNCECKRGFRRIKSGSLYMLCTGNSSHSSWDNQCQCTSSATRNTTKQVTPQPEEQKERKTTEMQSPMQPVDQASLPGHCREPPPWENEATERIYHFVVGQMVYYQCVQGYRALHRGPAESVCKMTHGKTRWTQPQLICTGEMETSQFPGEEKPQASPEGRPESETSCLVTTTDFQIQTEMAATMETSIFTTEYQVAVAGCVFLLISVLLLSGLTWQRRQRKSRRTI
substance,measurement,setting,value
C. diphtheriae-derived s-Ontak-His6 (SEQ ID NO: 58),MT-2 cell IC50 (earlier disclosed data),[1],0.12 pM
"E. coli-derived classic Ontak (denileukin diftitox, SEQ ID NO: 10)",IC50 against HUT-102 T cell lymphoma cells (in vitro cell killing),[1],1.8 pM
s-DAB1-389-mIL4-His6 (SEQ ID NO: 134),IC50 for killing 4T1 cells (Trypan blue viability),[2],10 pM
same,"IC50 of 4T1 cell migration inhibition (clonogenic assay, Giemsa staining)",[2],800 pM

# — patent US20220023395A1
